B1: YLR020C: yeast GST-HisX6 fusion protein on proteome chip (protein, UniProt Q07950 1-538, looked up)
Sterol esterase 2: MVNKVVDEVQRLVSAIILTSFMTGLFILSLWKNYVTVHFQHKNDPRDTRSSRTKIQPNDKKKKRPARHSRPLSISSTTPLDLQRDQENNIEYDRTVTSKLSMTSNASLSENGDGNANIKMETNVNQAPYAAENPFQNIALAEDTKLVPDLKYYYKEYGIDIEEFEVETDDGFIIDLWHFKSRLNDGVEEVKREPILLLHGLLQSCGAFASSGRKSLAYFLYESGFDVWLGNNRCGLNAKWNMKKLGNDHSKKWDWDMHQMVQYDLKALINYVLDSTGYAKLSLVAHSQGTTQGFMGLVNGEKLYASDFKLVDKLENFVALAPAVYPGPLLDEKAFVRLMAKGIDSPWYFGRRSFIPLMMTMRKLMVGTKIFSFLSYIMFNYLFDWNDVLWDRVLRDRNFLFSPVHISVKLMQWWLSPLPNKLSFKKGAEKIFPDKKTWFPIAKNDDDSGNNLDNNKLHLNPKRQNSEEFPHIIMFIPKQDRLVDGERLINHFINHEANAVYKIWYIDEYSHLDVLWAHDVIDRIGKPMIENLRFPNAR
modifications: GST-His6 tag
notes: yeast GST-HisX6 fusion protein on proteome chip
B2: URA8: yeast GST-HisX6 fusion protein on proteome chip (protein, UniProt P38627 1-578, looked up)
CTP synthase 2: MKYVVVSGGVISGIGKGVLASSTGMLLKTLGLKVTSIKIDPYMNIDAGTMSPLEHGECFVLDDGGETDLDLGNYERYLGITLSRDHNITTGKIYSHVISRERRGDYLGKTVQIVPHLTNAIQDWIQRVSKIPVDDTGLEPDVCIIELGGTVGDIESAPFVEALRQFQFEVGRENFALIHVSLVPVIHGEQKTKPTQAAIKDLRSLGLIPDMIACRCSEELNRSTIDKIAMFCHVGPEQVVNVHDVNSTYHVPLLLLKQHMIDYLHSRLKLGEVPLTLEDKERGSQLLTNWENMTKNLDDSDDVVKIALVGKYTNLKDSYLSVTKSLEHASMKCRRQLEILWVEASNLEPETQEVDKNKFHDSWNKLSSADGILVPGGFGTRGIEGMILAAKWARESGVPFLGVCLGLQVAAIEFARNVIGRPNSSSTEFLDETLLAPEDQVVIYMPEIDKEHMGGTMRLGLRPTIFQPNSEWSNIRKLYGEVNEVHERHRHRYEINPKIVNDMESRGFIFVGKDETGQRCEIFELKGHPYYVGTQYHPEYTSKVLEPSRPFWGLVAAASGTLGEVIKDINLSEGNENE
modifications: GST-His6 tag
notes: as for B1
B3: ARG1: yeast GST-HisX6 fusion protein on proteome chip (protein, UniProt P22768 1-420, looked up)
Argininosuccinate synthase: MSKGKVCLAYSGGLDTSVILAWLLDQGYEVVAFMANVGQEEDFDAAKEKALKIGACKFVCVDCREDFVKDILFPAVQVNAVYEDVYLLGTSLARPVIAKAQIDVAKQEGCFAVSHGCTGKGNDQIRFELSFYALKPDVKCITPWRMPEFFERFAGRKDLLDYAAQKGIPVAQTKAKPWSTDENQAHISYEAGILEDPDTTPPKDMWKLIVDPMDAPDQPQDLTIDFERGLPVKLTYTDNKTSKEVSVTKPLDVFLAASNLARANGVGRIDIVEDRYINLKSRGCYEQAPLTVLRKAHVDLEGLTLDKEVRQLRDSFVTPNYSRLIYNGSYFTPECEYIRSMIQPSQNSVNGTVRVRLYKGNVIILGRSTKTEKLYDPTESSMDELTGFLPTDTTGFIAIQAIRIKKYGESKKTKGEELTL
modifications: GST-His6 tag
notes: as for B1
B4: KSS1: yeast GST-HisX6 fusion protein on proteome chip (protein, UniProt P14681 1-368, looked up)
Mitogen-activated protein …: MARTITFDIPSQYKLVDLIGEGAYGTVCSAIHKPSGIKVAIKKIQPFSKKLFVTRTIREIKLLRYFHEHENIISILDKVRPVSIDKLNAVYLVEELMETDLQKVINNQNSGFSTLSDDHVQYFTYQILRALKSIHSAQVIHRDIKPSNLLLNSNCDLKVCDFGLARCLASSSDSRETLVGFMTEYVATRWYRAPEIMLTFQEYTTAMDIWSCGCILAEMVSGKPLFPGRDYHHQLWLILEVLGTPSFEDFNQIKSKRAKEYIANLPMRPPLPWETVWSKTDLNPDMIDLLDKMLQFNPDKRISAAEALRHPYLAMYHDPSDEPEYPPLNLDDEFWKLDNKIMRPEEEEEVPIEMLKDMLYDELMKTME
modifications: GST-His6 tag
notes: as for B1
B5: DTR1: yeast GST-HisX6 fusion protein on proteome chip (protein, UniProt P38125 1-572, looked up)
Dityrosine transporter 1: MGSEPFQKKNLGLQINSQESGTTRSTFHSLEDLGDDVINESWDQVNQKRANIDHDVFHEHPDSSPSLSAQKAKTKEEEVAVKSSNSQSRDPSPDTQAHIPYTYFSKDQRLIIFGIIIFIGFLGPMSGNIYIPALPLLQREYDVSATTINATVSVFMAVFSVGPLFWGALADFGGRKFLYMVSLSLMLIVNILLAAVPVNIAALFVLRIFQAFASSSVISLGAGTVTDVVPPKHRGKAIAYFMMGPNMGPIIAPIVAGLILMKGNYWRWLFGFTSIMTGIALILVTALLPETLRCIVGNGDPKWGDKKDERENNESPFFEGNKISHRRLFPDIGIRKPVNNDAFFQENFPKPPKAGLTLYWKMIKCPPIIITSVSTALLFSSYYAFSVTFSYYLEHDYRFTMLEIGAAYVCPGVAMLLGSQSGGHLSDYLRSRWIKSHPKKKFPAEFRLLLNLIGILLTICGTIGYGWAIFFHYHFVVLLVFSALTAFGMTWCSNTSMTYLTELFPKRAAGTVAVSSFFRNVGAAISSAIILQLCNAMGIGWCFTGLGLCSSISLIGILYLLIFQRKYTAKEF
modifications: GST-His6 tag
notes: as for B1
B6: MAG1: yeast GST-HisX6 fusion protein on proteome chip (protein, UniProt P22134 1-296, looked up)
DNA-3-methyladenine …: MKLKREYDELIKADAVKEIAKELGSRPLEVALPEKYIARHEEKFNMACEHILEKDPSLFPILKNNEFTLYLKETQVPNTLEDYFIRLASTILSQQISGQAAESIKARVVSLYGGAFPDYKILFEDFKDPAKCAEIAKCGLSKRKMIYLESLAVYFTEKYKDIEKLFGQKDNDEEVIESLVTNVKGIGPWSAKMFLISGLKRMDVFAPEDLGIARGFSKYLSDKPELEKELMRERKVVKKSKIKHKKYNWKIYDDDIMEKCSETFSPYRSVFMFILWRLASTNTDAMMKAEENFVKS
modifications: GST-His6 tag
notes: as for B1

Legend:
Details in all cases: liposome binding signal on yeast proteome chip, Cy3-streptavidin detection
PI(3,4,5)P3 liposomes = assay: Yeast proteome chip probed with PI(3,4,5)P3 liposomes
PI(4)P liposomes = assay: Yeast proteome chip probed with PI(4)P liposomes
[1] = system: phosphatidylcholine (PC) liposomes; assay: Yeast proteome chip probed with PC liposomes
Summary of the method: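 Sonicated liposomes in TBS, of phosphatidylcholine with 1% (w/w) biotin-DHPE plus 5% (w/w) of the named phosphoinositide (PC-only liposomes lacking it), were incubated on blocked chips of GST-RGS-His6-tagged yeast ORF proteins for 1 h at RT. Bound liposomes were detected with Cy3- or Cy5-streptavidin after PBS washes.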

PI(3)P liposomes = assay: Yeast proteome chip probed with PI(3)P liposomes
From the text: To identify PI-binding proteins in yeast, liposomes were used as probes because the liposome provides the most relevant physiological condition to assay the interactors. Six types of liposomes were used. Each contains phosphatidylcholine (“PC”) with 1% (w/w) N-(biotinoyl)-1,2-dihexadecanoyl-sn-glycero-3-phosphoethanolamine, triethylammonium salt (biotin DHPE). The biotinylated lipid serves as a label that can be detected by Cy3-streptavidin (21). In addition to PC, the five other liposomes contain either 5% (w/w) PI(3)P, PI(4)P, PI(3,4)P2, PI(4,5)P2, or PI(3,4,5)P3 (FIG. 3A).
The protein-liposome interaction was assayed as follows. Appropriate amounts of each lipid in chloroform were mixed and dried under nitrogen. The lipid mixture was resuspended in TBS buffer by vortexing. The liposomes were created by sonication. Blocked proteome chips were washed three to five times in PBS buffer, and the extra liquid on the glass surface was removed by tapping the slides vertically on a KIMWIPE™. 200 μl of liposome solution was added to the proteome chip and immediately covered by a hydrophobic plastic cover slip (GRACE BIO-LAB™, USA). After trapped air bubbles were removed, the chip was incubated in a humidity chamber at RT for one hour. To remove the cover slip, the chip was immersed into large volume of PBS buffer (50 ml), so that the slip would float away. The chip was then moved to a second PBS bath (>50 ml) and washed 3×5 min with shaking at RT. After removing extra liquid on the surface of the chip, about 100 μl of Cy3 or Cy5 conjugated streptavidin (PIERCE™, USA; 1:2000 to 1:4000 dilution) was added to the surface and covered by a hydrophobic plastic cover slip (GRACE BIO-LABS™, USA). The chip was incubated for greater than 30 min in the dark at RT. The chip was then washed as described above. To completely remove the liquid on the chip, the chip was spun to dryness at 1500-2000 rpm for 5-10 min at RT.
• 1. S. Fields, Y. Kohara, D. J. Lockhart, Proc. Natl. Acad. Sci. 96, 8825 (1999); A. Goffeau et al., Science 274, 563 (1996). • 2 P. Ross-Macdonald et al., Nature 402, 413 (1999); J. L., DeRisi, V. R. Iyer, P. O. Brown, Science 278, 680 (1997); E. A. Winzeler et al., Science 285, 901 (1999). P. Uetz et al., Nature 403, 623 (2000); T. Ito et al., Proc. Natl. Acad. Sci. USA. 97, 1143 (2000) • 3 H. Zhu, M. Snyder, Curr. Opin. Chem. Biol. 5, 40 (2001). • 4 M. R. Martzen et al., Science 286, 1153 (1999). • 5 H. Zhu et al., Nat. Genet. 26, 283 (2000). • 6 G. MacBeath, S. L. Schreiber, Science 289, 1760 (2000). • 7 A. Caveman, J. Cell Sci. 113, 3543 (2000). • 8 P. Arenkov et al., Anal. Biochem 278, 123 (2000). • 9 D. A. Mitchell, T. K. Marshall, R. J. Deschenes, Yeast 9, 715 (1993). The expression vector pEGH was created by inserting an RGS-HisX6 epitope tag between the GST gene and the polycloning site of pEG(KG). The yeast ORFs were cloned using the strategy described previously (5), except every step was done in a 96-well format. Plasmid DNAs confirmed by DNA sequencing were reintroduced into both yeast (Y258) and E. coli (DH5a). […] 0.1 mM calcium was present in buffers in all subsequent steps. The chip was washed three times with PBS at RT. Cy3-conjugated streptavidin (Jackson IR, USA) (1:5000 dilution) was added to the chip and incubated for 30 min at RT. After extensive washing, the chip was spun dry and scanned using a microarray scanner; the data was subsequently acquired with the GENEPIX™ array densitometry software (Axon, USA). • 12 S. S. Hook, A. R. Means, Annu. Rev. Pharmacol. Toxicol.41, 471 (2001). • 13 M. S. Cyert, R. Kunisawa, D. Kaim, J. Thorner, Proc. Natl. Acad. Sci. USA 88, 7376 (1991). • 14 D. A. Stirling, K. A. Welch, M. J. Stark, EMBO J. 13, 4329 (1994). • 15 F. Bohl, Kruse, EMBO J. 19, 5514 (2000); E. Bertrand et al., Mol. Cell 2, 437 (1998). • 16 D. C. Winter, E. Y. Choe, R. Li, Proc. Nat. Acad Sci. USA 96, 7288 (1999). • 17 C.

PI(3,4)P2 liposomes = assay: Yeast proteome chip probed with PI(3,4)P2 liposomes
PI(4,5)P2 liposomes = assay: Yeast proteome chip probed with PI(4,5)P2 liposomes

| Molecule | PI(3, 4, 5)P3 (PI(3,4,5)P3 liposomes) | PI(4)P (PI(4)P liposomes) | PC [1] | PI(3)P (PI(3)P liposomes) | PI(3, 4)P2 (PI(3,4)P2 liposomes) | PI(4, 5)P2 (PI(4,5)P2 liposomes) |
| --- | --- | --- | --- | --- | --- | --- |
| B1 | 1.24 | −5.66 | 7.34 | 3.75 | 2.67 | 15.68 |
| B2 | 42.86 | 34.40 | 20.25 | 11.50 | −2.83 | 23.95 |
| B3 | −6.08 | −6.31 | 23.77 | 213.00 | 1.73 | 3.48 |
| B4 | 0.23 | 10.45 | 16.43 | −11.50 | 87.91 | −2.61 |
| B5 | 13.72 | −4.79 | 24.07 | 23.00 | 2.83 | 3.05 |
| B6 | 29.02 | 21.34 | 10.86 | 6.50 | −2.20 | 5.23 |
